In publication PMC7948415:

Molecular target: alternative C3 convertase, C3bBb (human) (UniProt P01024)

B1: SG7.AF (natural protein)
chain: ARKHVQELLKTFRRIDFDETRKSVYLQSAKFGVQSQLREPLTKKVLNYWDDVKLSKTCLDRMVTKVNDVKETFYAGFSYACESHNQYSVDCLEAAKPSYLTALGEIRGETEKCLTTRLK
- IC50 of inhibition of AP-mediated hemolysis of rabbit erythrocytes, properdin-depleted serum against normal human serum: 6 fold
